Data taken from doi:10.1101/803361.

Target: Fluorescein-labelled Hsf1 peptide with the Hsc70 binding site in the TAD, residues 461-471 (human) (UniProt Q00613)
Assay: fluorescence polarisation

Chain of Fluorescein-labelled Hsf1 peptide with the Hsc70 binding site in the TAD, residues 461-471 (human) (Q00613 whole entry, looked up, the tested form may be a part): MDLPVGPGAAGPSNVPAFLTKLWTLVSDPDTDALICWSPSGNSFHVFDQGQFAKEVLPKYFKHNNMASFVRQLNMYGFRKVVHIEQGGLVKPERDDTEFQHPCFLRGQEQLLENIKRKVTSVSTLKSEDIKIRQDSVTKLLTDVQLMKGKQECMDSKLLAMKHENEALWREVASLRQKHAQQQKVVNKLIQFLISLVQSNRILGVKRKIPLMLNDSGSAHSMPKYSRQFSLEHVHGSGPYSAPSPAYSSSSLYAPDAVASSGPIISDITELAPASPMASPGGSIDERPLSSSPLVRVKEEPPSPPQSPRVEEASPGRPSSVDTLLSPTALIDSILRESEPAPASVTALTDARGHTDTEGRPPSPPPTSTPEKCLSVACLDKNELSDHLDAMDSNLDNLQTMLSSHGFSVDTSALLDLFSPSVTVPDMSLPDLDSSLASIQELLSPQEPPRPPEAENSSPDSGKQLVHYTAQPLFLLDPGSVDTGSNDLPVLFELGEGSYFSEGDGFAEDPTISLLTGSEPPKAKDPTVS
Chain of Human Hsc70 (HSPA8), wild type (P11142 whole entry): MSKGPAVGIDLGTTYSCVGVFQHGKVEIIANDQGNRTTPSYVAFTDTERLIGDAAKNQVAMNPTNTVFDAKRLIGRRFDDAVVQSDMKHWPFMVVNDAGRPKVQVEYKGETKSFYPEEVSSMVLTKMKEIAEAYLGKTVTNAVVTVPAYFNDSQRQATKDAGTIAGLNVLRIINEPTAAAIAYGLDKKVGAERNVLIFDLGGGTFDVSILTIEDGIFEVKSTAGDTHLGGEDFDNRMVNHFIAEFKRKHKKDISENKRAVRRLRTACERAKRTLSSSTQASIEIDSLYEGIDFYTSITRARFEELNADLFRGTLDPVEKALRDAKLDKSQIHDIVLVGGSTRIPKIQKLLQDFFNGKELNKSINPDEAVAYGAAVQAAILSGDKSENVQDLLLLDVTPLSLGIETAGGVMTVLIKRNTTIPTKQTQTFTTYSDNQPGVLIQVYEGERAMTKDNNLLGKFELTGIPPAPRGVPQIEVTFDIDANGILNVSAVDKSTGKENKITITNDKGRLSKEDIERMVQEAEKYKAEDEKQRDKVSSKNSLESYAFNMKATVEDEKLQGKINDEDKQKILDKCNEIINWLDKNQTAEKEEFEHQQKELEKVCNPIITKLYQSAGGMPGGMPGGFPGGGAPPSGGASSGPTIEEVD

Human Hsc70 (HSPA8), wild type (from UniProt P11142 1-646) (natural protein)
Kd: 5 to 30 µM
